Measurements taken from patent US20160272683A1 (Novo Nordisk, published 2016).
Numbered stars: 1 amine (or outer) side, 2 acyl side, 3 side chain; on linkers, the order of the positions; unused ones are H or OH. Side chains are listed from the residue outwards. Ends that are not written are not given here. * marks the point of attachment. C20 diacid = O=C(O)CCCCCCCCCCCCCCCCCCC(=O)*; C18 diacid = O=C(O)CCCCCCCCCCCCCCCCC(=O)*; γGlu = O=C(O)[C@H](CCC(=O)[*:2])N[*:1]; C14 diacid = O=C(O)CCCCCCCCCCCCC(=O)*; AEEA = NCCOCCOCC(=O)O

T1: human calcitonin receptor (human, UniProt P30988 25-474)
T1 construct: whole, on cells; Assay VII: membranes on SPA beads; also called hCT-R; hCTR
T1 sequence (looked up): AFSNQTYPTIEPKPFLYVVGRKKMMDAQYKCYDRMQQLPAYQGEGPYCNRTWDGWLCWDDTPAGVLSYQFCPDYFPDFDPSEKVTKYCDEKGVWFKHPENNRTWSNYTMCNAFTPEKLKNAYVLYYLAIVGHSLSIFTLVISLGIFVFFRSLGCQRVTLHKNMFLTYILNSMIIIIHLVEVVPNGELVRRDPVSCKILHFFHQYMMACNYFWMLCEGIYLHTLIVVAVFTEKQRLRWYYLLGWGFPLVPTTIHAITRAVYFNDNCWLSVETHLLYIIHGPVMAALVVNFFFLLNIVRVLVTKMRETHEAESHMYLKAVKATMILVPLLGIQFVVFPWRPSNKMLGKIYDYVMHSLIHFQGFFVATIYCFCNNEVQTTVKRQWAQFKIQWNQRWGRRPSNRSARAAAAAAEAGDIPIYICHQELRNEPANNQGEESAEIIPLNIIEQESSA

T2: human amylin receptor (amylin 3(a) receptor: human calcitonin receptor with RAMP-3) (human, UniProt P30988 25-474; O60896 24-148, limits assumed)
T2 construct: whole, on cells; Assay V: membranes of the Amylin 3(a)/CRE-luc BHK cells on SPA beads; also called hAmylin-R
T2 sequence (looked up) 1: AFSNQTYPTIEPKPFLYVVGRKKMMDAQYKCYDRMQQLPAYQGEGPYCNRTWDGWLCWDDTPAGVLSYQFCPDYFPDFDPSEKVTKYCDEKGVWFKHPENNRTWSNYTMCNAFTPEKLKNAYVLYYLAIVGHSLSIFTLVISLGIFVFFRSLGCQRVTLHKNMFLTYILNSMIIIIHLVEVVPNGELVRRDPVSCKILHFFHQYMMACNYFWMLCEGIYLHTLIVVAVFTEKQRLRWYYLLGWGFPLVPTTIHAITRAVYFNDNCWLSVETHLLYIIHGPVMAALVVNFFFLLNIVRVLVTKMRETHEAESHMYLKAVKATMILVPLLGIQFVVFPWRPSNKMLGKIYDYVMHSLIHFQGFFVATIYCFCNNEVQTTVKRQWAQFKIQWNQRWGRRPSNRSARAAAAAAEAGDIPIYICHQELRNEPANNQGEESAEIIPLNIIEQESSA
T2 sequence (looked up) 2: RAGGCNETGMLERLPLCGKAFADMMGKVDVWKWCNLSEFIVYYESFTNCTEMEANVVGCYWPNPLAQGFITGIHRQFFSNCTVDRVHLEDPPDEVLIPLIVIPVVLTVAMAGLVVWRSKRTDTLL

B1: [N-terminal(C20 diacid-gGlu), des1, 9T, 21S, 23Y, 30S, 31G, 33Y]mimylin (peptide)
peptide: {C20 diacid-γGlu}-ASELSTATLGRLSAELHELSTYPRTETGSGSY-NH2
SMILES: CC(C)C[C@H](NC(=O)[C@H](CCCNC(=N)N)NC(=O)CNC(=O)[C@H](CC(C)C)NC(=O)[C@@H](NC(=O)[C@H](C)NC(=O)[C@@H](NC(=O)[C@H](CO)NC(=O)[C@H](CC(C)C)NC(=O)[C@H](CCC(=O)O)NC(=O)[C@H](CO)NC(=O)[C@H](C)NC(=O)CC[C@H](NC(=O)CCCCCCCCCCCCCCCCCCC(=O)O)C(=O)O)[C@@H](C)O)[C@@H](C)O)C(=O)N[C@@H](CO)C(=O)N[C@@H](C)C(=O)N[C@@H](CCC(=O)O)C(=O)N[C@@H](CC(C)C)C(=O)N[C@@H](Cc1c[nH]cn1)C(=O)N[C@@H](CCC(=O)O)C(=O)N[C@@H](CC(C)C)C(=O)N[C@@H](CO)C(=O)N[C@H](C(=O)N[C@@H](Cc1ccc(O)cc1)C(=O)N1CCC[C@H]1C(=O)N[C@@H](CCCNC(=N)N)C(=O)N[C@H](C(=O)N[C@@H](CCC(=O)O)C(=O)N[C@H](C(=O)NCC(=O)N[C@@H](CO)C(=O)NCC(=O)N[C@@H](CO)C(=O)N[C@@H](Cc1ccc(O)cc1)C(N)=O)[C@@H](C)O)[C@@H](C)O)[C@@H](C)O
B2: [N-terminal(C18 diacid-gGlu), des1, 4G, 15Q, 21Q, 23Y, 30S, 31G, 32T, 33Y]mimylin (peptide)
peptide: {C18 diacid-γGlu}-ASGLSTAALGRLSQELHELQTYPRTETGSGTY-NH2
SMILES: CC(C)C[C@H](NC(=O)CNC(=O)[C@H](CO)NC(=O)[C@H](C)NC(=O)CC[C@H](NC(=O)CCCCCCCCCCCCCCCCC(=O)O)C(=O)O)C(=O)N[C@@H](CO)C(=O)N[C@H](C(=O)N[C@@H](C)C(=O)N[C@@H](C)C(=O)N[C@@H](CC(C)C)C(=O)NCC(=O)N[C@@H](CCCNC(=N)N)C(=O)N[C@@H](CC(C)C)C(=O)N[C@@H](CO)C(=O)N[C@@H](CCC(N)=O)C(=O)N[C@@H](CCC(=O)O)C(=O)N[C@@H](CC(C)C)C(=O)N[C@@H](Cc1c[nH]cn1)C(=O)N[C@@H](CCC(=O)O)C(=O)N[C@@H](CC(C)C)C(=O)N[C@@H](CCC(N)=O)C(=O)N[C@H](C(=O)N[C@@H](Cc1ccc(O)cc1)C(=O)N1CCC[C@H]1C(=O)N[C@@H](CCCNC(=N)N)C(=O)N[C@H](C(=O)N[C@@H](CCC(=O)O)C(=O)N[C@H](C(=O)NCC(=O)N[C@@H](CO)C(=O)NCC(=O)N[C@H](C(=O)N[C@@H](Cc1ccc(O)cc1)C(N)=O)[C@@H](C)O)[C@@H](C)O)[C@@H](C)O)[C@@H](C)O)[C@@H](C)O
B3: [N-terminal(C20 diacid-gGlu), 1A, 23Y, 30S, 31G]mimylin (peptide)
peptide: {C20 diacid-γGlu}-AASELSTAALGRLSAELHELATYPRTETGSGSP-NH2
SMILES: CC(C)C[C@H](NC(=O)[C@H](C)NC(=O)[C@H](C)NC(=O)[C@@H](NC(=O)[C@H](CO)NC(=O)[C@H](CC(C)C)NC(=O)[C@H](CCC(=O)O)NC(=O)[C@H](CO)NC(=O)[C@H](C)NC(=O)[C@H](C)NC(=O)CC[C@H](NC(=O)CCCCCCCCCCCCCCCCCCC(=O)O)C(=O)O)[C@@H](C)O)C(=O)NCC(=O)N[C@@H](CCCNC(=N)N)C(=O)N[C@@H](CC(C)C)C(=O)N[C@@H](CO)C(=O)N[C@@H](C)C(=O)N[C@@H](CCC(=O)O)C(=O)N[C@@H](CC(C)C)C(=O)N[C@@H](Cc1c[nH]cn1)C(=O)N[C@@H](CCC(=O)O)C(=O)N[C@@H](CC(C)C)C(=O)N[C@@H](C)C(=O)N[C@H](C(=O)N[C@@H](Cc1ccc(O)cc1)C(=O)N1CCC[C@H]1C(=O)N[C@@H](CCCNC(=N)N)C(=O)N[C@H](C(=O)N[C@@H](CCC(=O)O)C(=O)N[C@H](C(=O)NCC(=O)N[C@@H](CO)C(=O)NCC(=O)N[C@@H](CO)C(=O)N1CCC[C@H]1C(N)=O)[C@@H](C)O)[C@@H](C)O)[C@@H](C)O
notes: mimylin derivative; also called Ex. #57; 57
B4: [N-terminal(C20 diacid-gGlu), des1, 4G, 15Q, 21Q, 23Y, 30S, 31Q, 32T, 33Y]mimylin (peptide)
peptide: {C20 diacid-γGlu}-ASGLSTAALGRLSQELHELQTYPRTETGSQTY-NH2
SMILES: CC(C)C[C@H](NC(=O)CNC(=O)[C@H](CO)NC(=O)[C@H](C)NC(=O)CC[C@H](NC(=O)CCCCCCCCCCCCCCCCCCC(=O)O)C(=O)O)C(=O)N[C@@H](CO)C(=O)N[C@H](C(=O)N[C@@H](C)C(=O)N[C@@H](C)C(=O)N[C@@H](CC(C)C)C(=O)NCC(=O)N[C@@H](CCCNC(=N)N)C(=O)N[C@@H](CC(C)C)C(=O)N[C@@H](CO)C(=O)N[C@@H](CCC(N)=O)C(=O)N[C@@H](CCC(=O)O)C(=O)N[C@@H](CC(C)C)C(=O)N[C@@H](Cc1c[nH]cn1)C(=O)N[C@@H](CCC(=O)O)C(=O)N[C@@H](CC(C)C)C(=O)N[C@@H](CCC(N)=O)C(=O)N[C@H](C(=O)N[C@@H](Cc1ccc(O)cc1)C(=O)N1CCC[C@H]1C(=O)N[C@@H](CCCNC(=N)N)C(=O)N[C@H](C(=O)N[C@@H](CCC(=O)O)C(=O)N[C@H](C(=O)NCC(=O)N[C@@H](CO)C(=O)N[C@@H](CCC(N)=O)C(=O)N[C@H](C(=O)N[C@@H](Cc1ccc(O)cc1)C(N)=O)[C@@H](C)O)[C@@H](C)O)[C@@H](C)O)[C@@H](C)O)[C@@H](C)O
B5: [des1, 4K(C20 diacid-gGlu), 30S, 31G]mimylin (peptide)
peptide: ASK([γGlu-C20 diacid])LSTAALGRLSAELHELATLPRTETGSGSP-NH2
modifications: N-terminus assumed
SMILES: CC(C)C[C@H](NC(=O)[C@H](C)NC(=O)[C@H](C)NC(=O)[C@@H](NC(=O)[C@H](CO)NC(=O)[C@H](CC(C)C)NC(=O)[C@H](CCCCNC(=O)CC[C@H](NC(=O)CCCCCCCCCCCCCCCCCCC(=O)O)C(=O)O)NC(=O)[C@H](CO)NC(=O)[C@H](C)N)[C@@H](C)O)C(=O)NCC(=O)N[C@@H](CCCNC(=N)N)C(=O)N[C@@H](CC(C)C)C(=O)N[C@@H](CO)C(=O)N[C@@H](C)C(=O)N[C@@H](CCC(=O)O)C(=O)N[C@@H](CC(C)C)C(=O)N[C@@H](Cc1c[nH]cn1)C(=O)N[C@@H](CCC(=O)O)C(=O)N[C@@H](CC(C)C)C(=O)N[C@@H](C)C(=O)N[C@H](C(=O)N[C@@H](CC(C)C)C(=O)N1CCC[C@H]1C(=O)N[C@@H](CCCNC(=N)N)C(=O)N[C@H](C(=O)N[C@@H](CCC(=O)O)C(=O)N[C@H](C(=O)NCC(=O)N[C@@H](CO)C(=O)NCC(=O)N[C@@H](CO)C(=O)N1CCC[C@H]1C(N)=O)[C@@H](C)O)[C@@H](C)O)[C@@H](C)O

Legend:
[1] = biological target: rat amylin receptor (rat calcitonin receptor with rat RAMP 3) (rat) (UniProt P32214); test: SPA competition vs 125I-rat amylin, membranes with rat CTR + rat RAMP3 (Assay VI)
[2] = biological target: rat calcitonin receptor (rat) (UniProt P32214); test: SPA competition vs 125I-calcitonin, membranes with rat CTR (Assay VIII)
[3] = biological target: T1, human calcitonin receptor; test: SPA competition vs 125I-calcitonin, membranes with human CTR (Assay VII)
Outline: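 SPA competition on membranes from BHK tk'ts 13 cells stably expressing human calcitonin receptor plus CRE-luciferase reporter; membranes 35 ng/μL final with 0.05 mg/well beads.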

[4] = biological target: T2, human amylin receptor (amylin 3(a) …); test: SPA competition vs 125I-rat amylin, membranes with human CTR + RAMP-3 (Assay V)

| Molecule | IC50 [1] | IC50 [2] | IC50 [3] | IC50 [4] |
| --- | --- | --- | --- | --- |
| [N-terminal(C20 diacid-gGlu-2xOEG), des1, 4G, 9V, 15Q, 21Q, 23Y, 30S, 31G, 32T, 33Y]mimylin (peptide) | 0.029 nM | – | – | – |
| B1 | 0.045 nM | 0.069 nM | – | – |
| B2 | 0.013 nM | 0.013 nM | – | – |
| B3 | – | – | 0.108 nM | 0.124 nM |
| B4 | 0.078 nM | 0.012 nM | – | – |
| B5 | – | 0.114 nM | – | – |
| {C20 diacid-γGlu-AEEA}-ASELSTAALGRLSAELHELATLPRTETGSGSP-NH2 [[N-terminal(C20 diacid-gGlu-OEG), des1, 30S, 31G]mimylin] | 0.146 nM | 0.044 nM | – | – |
| {C14 diacid}-ASELSTAALGRLSAELHELATLPRTETGSGSP-NH2 [[N-terminal(C14 diacid), des1, 30S, 31G]mimylin] | – | 0.123 nM | – | – |
